Ends that are not written are not given here.
Columns and labels:
20S proteasome = molecular target: T1, 20S proteasome (Homo sapiens, UniProt P28072+P28074+Q99436); experiment: Enzymatic activity of 20S proteasome on aged keratinocytes maintained in culture (AMC fluorogenic substrates); assay type: cell-based; details: 1% peptide in medium, renewed 3 times per week, 15 days culture
T1 construct: endogenous in cells; host or cells: experimentally aged normal human keratinocytes (NHK); crude cell lysate
Experimental: Experimentally aged keratinocytes maintained in culture for 15 days are treated with 1% of peptide SEQ ID No. 6. The enzymatic activities of 20S proteasome are then studied. In fact, 20S proteasome is the subunit responsible for enzymatic hydrolysis. Three enzymatic activities may be studied: Trypsin-like, chymotrypsin-like and peptidylglutamyl-peptide hydrolase (PGPH) activity. We are proposing to study these activities by a specific enzymatic assay of each activity.
The aged keratinocytes are maintained in culture for 15 days. The cell treatment is carried out by adding a solution at 1% of peptide SEQ ID No. 6 directly into the medium, renewed 3 times per week for the time of the experiment. The assay of each activity was carried out by using specific substrates labeled by a fluorescent compound 7-amido-4-methylcoumarin (AMC). After cleavage, the AMC excitation wavelength is 350 nm, the fluorescence is read at 440 nm. The fluorescence intensity is proportional to the quantity of fluorochrome obtained and consequently, this quantity is proportional to the quantity of hydrolyzed substrate.
The synthetic peptide Boc-Leu-Arg-Arg-AMC is specific for trypsin activity.
The synthetic peptide Suc-Leu-Leu-Val-Tyr-AMC (SEQ ID NO: 8) is specific for chymotrypsin activity.
The synthetic peptide Z-Leu-Leu-Glu-AMC is specific for peptidylglutamyl-peptide hydrolase activity.
The cells are detached from the support in an extraction buffer. Afterwards, the cells are sonicated for 1 minute at 4° C., and then centrifuged at 15000 g for 30 minutes at 4° C. The protein assay is carried out by the BCA kit (Pierce). After incubation of the cellular lysate with the synthetic substrate specific for the activity studied, fluorescence is read with the Synergy spectrophotometer (BIOTEK, Vermont, USA) at 440 nm.

beta-galactosidase = details: 1% peptide, 3 times per week; keratinocytes aged 20 days in culture; X-gal staining
Experimental: These cells are maintained in culture in a special keratinocyte-SFM medium (Invitrogen) at 37° C. under a humidified atmosphere of 5% CO2. Aged NHK cells are obtained by performing a series of repeated sub-cultures. Briefly the cells are seeded in 75 cm^2 flasks, at low density and cultured from 5 to 10 days between 2 passages. […] The cells are then maintained under these conditions for 45 days.
A study of the antiaging effect of the active principle was carried out by evaluating the expression of the beta-galactosidase protein on experimentally aged keratinocytes in culture.
Keratinocytes experimentally aged in 8-well labteck are cultured and maintained for 20 days in the presence or not of 1% peptide of SEQ ID No. 6. The treatment is carried out 3 times per week by direct addition into the medium.
Untreated cells are maintained in culture for the same experiment time and will be used as controls. On the day of labeling, the cells are rinsed and fixed in a 2% glutaraldehyde-2% formaldehyde mixture for 3 minutes. The cells are then rinsed and 300 μl of 5-bromo-4-chloro-3 indolyl b-D-galactosidase, commonly called X-gal (substrate of beta-galactosidase), is applied. Incubation is carried out for 24 hours in the CO2 incubator, and then the cells are rinsed and the labteck is quickly mounted in a suitable medium. Observation is carried out by transmission microscope. […]

Ki67 protein = experiment: Ki67 proliferation marker immunolabelling on experimentally aged keratinocytes in culture; assay type: cell-based, human; details: 1% peptide in medium; keratinocytes aged 20 days in culture; immunofluorescence
Experimental: A study of the activator effect of peptide SEQ ID No. 2 was carried out by evaluating the expression of the cellular proliferation marker protein on experimentally aged keratinocytes in culture. The analysis is carried out after 20 days of culture.
The keratinocytes are cultured for 20 days in a CO2 incubator at 37° C. under humidified atmosphere. The cells are treated directly by adding 1% peptide directly into the medium. Cells that are not treated but aged in the same manner are used as control cells. For experimental requirements, the cells are seeded in 8-well labteck, maintained in culture and treated in the same support until the day of labeling. On the day of immunolabelling, the cells are rinsed by using phosphate buffer and then fixed with cold methanol before labeling.
Immunolabelling is carried out by a rabbit anti-Ki67 antibody (Abcam) diluted to 1/1000th and a secondary antibody to 1/1000th coupled with an Alexa fluor monkey anti-rabbit fluorochrome (Molecular probes).
The slides are then mounted in a suitable medium and observed by epifluorescence microscope (Nikon Eclipse E E600).

Substance: Arg-Lys-Gly-NH2 [SEQ ID No. 6]
- trypsin-like activity of 20S proteasome, increase (20S proteasome; substrate Boc-Leu-Arg-Arg-AMC, p=0.033): 155.3%
- chymotrypsin-like activity of 20S proteasome, increase (20S proteasome; substrate Suc-Leu-Leu-Val-Tyr-AMC, p=0.0477): 130%
- peptidylglutamyl-peptide hydrolase activity of 20S proteasome, increase (20S proteasome; substrate Z-Leu-Leu-Glu-AMC, p=0.00053): 144.6%
- beta-galactosidase activity in treated cells compared to untreated cells (beta-galactosidase): strongly reduced

Substance: Leu-Arg-Lys-Gly-Met-NH2 (LRKGM-NH2) [SEQ ID No. 2]
- Ki67 protein expression in aged and treated cells compared to untreated cells (Ki67 protein): increased the Ki67 protein

Reference: US8883734B2, “Proteasome-activating anti-aging peptides and compositions containing same” (ISP Investments Inc., priority 2009, dated 2014)
